Measurements published in patent publication US5650391.

Key:
[1] = target: low density lipoprotein receptor-related protein/a2-macroglobulin receptor (LRP) on rat hepatoma MH1 C1 cells (rat)
[2] = target: low density lipoprotein receptor-related protein/a2-macroglobulin receptor (LRP) on rat hepatoma MH1 C1 cells (rat); remark: listed apart in the source
[3] = target: human low density lipoprotein receptor-related protein (LRP) on human hepatoma HepG2 cells (human) (UniProt Q07954)
[4] = target: TFPI binding sites on rat hepatoma MH1 C1 cells (receptor not identified); assay: binding of ^125 I-TFPI to MH1 C1 cell monolayers at 4° C. (saturation with Scatchard analysis, and competition by unlabelled TFPI)

Row | Substance | inhibition of ^125 I-TFPI degradation (trichloroacetic acid-soluble radioactivity) by MH1 C1 cells, 4 h at 37° C. [1] [%] | degradation of pre-bound ^125 I-TFPI in a single cycle of endocytosis in MH1 C1 cells [2] [%] | degradation of pre-bound ^125 I-TFPI by HepG2 cells (single cycle endocytosis assay) [3] [%] | functional activity (stoichiometric inhibition of factor Xa) (factor Xa) [%] | Kd [4] [nM]
1 | receptor-associated protein (RAP), 39-kDa protein, full-length (1-319) (ligand) | 80 | 80 | 65 | – | –
2 | recombinant human full-length tissue factor pathway inhibitor (TFPI) (from UniProt P10646) (ligand) | – | – | – | 88 | 30
